Data on 14 molecules can be found in US20170037106A1 (FLOREY INSTITUTE OF NEUROSCIENCE AND MENTAL HEALTH, published 2017).

T1: 7BP: fusion protein comprising the extracellular domain of RXFP1 and the transmembrane domain of CD8, on cells (UniProt Q9HBX9 1-409)
T1 construct: extracellular domain;domain: transmembrane domain; also called 7BP cells; not shown: transmembrane domain of CD8
T1 sequence (looked up): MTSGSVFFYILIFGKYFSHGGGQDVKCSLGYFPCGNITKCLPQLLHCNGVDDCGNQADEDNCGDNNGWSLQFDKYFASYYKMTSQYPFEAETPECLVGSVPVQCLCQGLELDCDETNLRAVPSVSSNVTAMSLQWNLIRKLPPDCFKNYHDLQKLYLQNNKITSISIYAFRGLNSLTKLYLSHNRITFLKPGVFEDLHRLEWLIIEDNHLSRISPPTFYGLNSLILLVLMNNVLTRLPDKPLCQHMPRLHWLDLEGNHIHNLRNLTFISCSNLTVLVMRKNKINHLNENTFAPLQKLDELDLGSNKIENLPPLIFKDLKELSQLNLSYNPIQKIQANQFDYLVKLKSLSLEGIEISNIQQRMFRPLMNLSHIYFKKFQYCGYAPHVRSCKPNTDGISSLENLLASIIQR

T2: RXFP1 (LGR7) receptor, on stably transfected HEK-293T cells (UniProt Q9HBX9 1-757, limits assumed)
T2 construct: whole, on cells; also called HEK-RXFP1 cells
T2 sequence (looked up): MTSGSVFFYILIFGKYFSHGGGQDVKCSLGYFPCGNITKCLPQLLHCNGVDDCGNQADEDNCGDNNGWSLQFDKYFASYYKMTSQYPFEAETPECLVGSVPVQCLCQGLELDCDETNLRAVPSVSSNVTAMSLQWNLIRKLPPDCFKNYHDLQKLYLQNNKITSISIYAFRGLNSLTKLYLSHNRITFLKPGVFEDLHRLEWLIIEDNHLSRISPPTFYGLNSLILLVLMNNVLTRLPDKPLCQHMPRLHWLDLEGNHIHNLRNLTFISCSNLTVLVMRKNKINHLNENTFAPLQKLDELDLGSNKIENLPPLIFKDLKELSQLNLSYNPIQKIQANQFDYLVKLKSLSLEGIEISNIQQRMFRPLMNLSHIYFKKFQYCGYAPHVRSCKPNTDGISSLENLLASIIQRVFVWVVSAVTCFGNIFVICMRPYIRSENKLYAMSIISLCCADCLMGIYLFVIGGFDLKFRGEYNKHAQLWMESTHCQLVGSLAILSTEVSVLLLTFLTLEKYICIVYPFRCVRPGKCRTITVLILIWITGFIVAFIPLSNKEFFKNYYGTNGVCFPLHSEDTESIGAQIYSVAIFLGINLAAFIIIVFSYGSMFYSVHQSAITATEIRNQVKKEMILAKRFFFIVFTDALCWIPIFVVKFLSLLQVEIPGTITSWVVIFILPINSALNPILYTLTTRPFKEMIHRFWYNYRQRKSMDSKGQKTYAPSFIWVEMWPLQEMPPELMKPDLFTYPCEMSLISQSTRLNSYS

T3: RXFP1 (LGR7) receptor, on stably transfected HEK-293T cells (UniProt Q9HBX9)
T3 sequence (looked up): T2 sequence (looked up)

B1: Modified B7-33 (B7-33 C11.23S) (peptide)
peptide: VIKLSGRELVRAQIAISGMSTWSKRSL-NH2
notes: also called single chain B7-33 C11.23S peptide
B2: native H2 relaxin (human relaxin-2, heterodimer of A chain and B1-29 B chain) (ligand)
chain 1: QLYSALANKCCHVGCTKRSLARFC
chain 2: DSWMEEVIKLCGRELVRAQIAICGMSTWS
modifications: disulfide (positions not given here); ends not checked; also: three disulfides (two inter-chain, one within A chain), places not given here
notes: mature; Two chains linked by three disulfide bonds (two inter-chain, one within the A chain); also called native human relaxin-2; Eu^3+-labelled H2 relaxin (tracer form)
B3: KKKK (AcB7-29 C11.23S) (peptide)
peptide: Ac-VIKLSGRELVRAQIAISGMSTWSKKKK-NH2
notes: AcB7-29 C11.23S with KKKK at the C-terminus in place of KRSL
B4: Native B7-33 (peptide)
peptide: VIKLCGRELVRAQIAICGMSTWSKRSL-NH2
modifications: not fully specified; printed as VIKLCGRELVRAQIAICGMSTWSKRSL-NH2; also: oxidised (ox), disulfide pattern not described
notes: also called B7-33ox
B5: B7-33 C11.23S R17HR (peptide)
peptide: VIKLSGRELV[hArg]AQIAISGMSTWSKRSL-NH2
modifications: N-terminus assumed
SMILES: CC[C@H](C)[C@H](NC(=O)[C@H](C)NC(=O)[C@@H](NC(=O)[C@H](CCC(N)=O)NC(=O)[C@H](C)NC(=O)[C@H](CCCCNC(=N)N)NC(=O)[C@@H](NC(=O)[C@H](CC(C)C)NC(=O)[C@H](CCC(=O)O)NC(=O)[C@H](CCCNC(=N)N)NC(=O)CNC(=O)[C@H](CO)NC(=O)[C@H](CC(C)C)NC(=O)[C@H](CCCCN)NC(=O)[C@@H](NC(=O)[C@@H](N)C(C)C)[C@@H](C)CC)C(C)C)[C@@H](C)CC)C(=O)N[C@@H](CO)C(=O)NCC(=O)N[C@@H](CCSC)C(=O)N[C@@H](CO)C(=O)N[C@H](C(=O)N[C@@H](Cc1c[nH]c2ccccc12)C(=O)N[C@@H](CO)C(=O)N[C@@H](CCCCN)C(=O)N[C@@H](CCCNC(=N)N)C(=O)N[C@@H](CO)C(=O)N[C@@H](CC(C)C)C(N)=O)[C@@H](C)O
B6: B1-33ox (peptide)
peptide: DSWMEEVIKLCGRELVRAQIAICGMSTWSKRSL-NH2
modifications: not fully specified (bridges); printed as DSWMEEVIKLCGRELVRAQIAICGMSTWSKRSL-NH2; cysteine pairing not given here

Square brackets hold non-standard residues; d marks the D form. Ends that are not written are not given here. hArg = N=C(N)NCCCC[C@H](N)C(=O)O

The target in the first assay is T1, 7BP: fusion protein comprising the …. The experiment in a line: Eu-H2 relaxin competition on 7BP cells.
For the molecule Ac-VIKLSGRELVAAQIAISGMSTWSKRSL-NH2 [R17A (AcB7-33 C11.23S)], the pKi was found to be 6.01 log M.

As for Ac-VIKLSGRELVRAQIAISGMSTWSKRSL-NH2 [AcB7-33 C11.23S], the pKi was 7.54 log M.

Regarding Ac-VIKLSGAELVAAQAAISGMSTWSKRSL-NH2 [R13/17A I20A (AcB7-33 C11.23S)], the pKi worked out at 5.54 log M.

With B1, the pKi is 7.65 log M.

As for Ac-VIKLSGAELVRAQIAISGMSTWSKRSL-NH2 [R13A (AcB7-33 C11.23S)], the pKi was determined as 5.76 log M.

Regarding B2, the pKi amounted to 8.97 log M.

B3 came in with a pKi of 8.91 log M.

A further assay has as its target T2, RXFP1 (LGR7) receptor, on stably …. The experiment in a line: Eu-H2 relaxin competition, whole HEK-293T cells stably expressing RXFP1. The procedure: Human embryonic kidney (HEK-293T) cells stably transfected with RXFP1 were cultured in RPMI 1640 medium supplemented with 10% fetal calf serum, 100 μg/ml penicillin, 100 μg/ml streptomycin and 2 mM L-glutamine and plated into 96-well pre-coated with poly-L-lysine for whole cell binding assays. Competition binding experiments were conducted with Eu³⁺-labelled H2 relaxin (as per Shabanpoor et al., 2012, Biochem Biophys Res Commun. 420, 253-256) in the absence or presence of increasing concentrations of unlabelled relaxin-2 B chain derivatives. Nonspecific binding was determined with an excess of unlabelled peptides (500 nM H2 relaxin). Fluorescent measurements were recorded at an excitation wavelength of 340 nm and emission of 614 nm on a Victor plate reader (Perkin-Elmer Inc.). […] Statistical differences in pIC₅₀ values were analyzed using one-way analysis of variance coupled to Newman Keul's multiple comparison test for multiple group comparisons in GraphPad Prism 6.
#p < 0.001 vs H2 relaxin ¹Data are presented as the mean ± S.E of the percentage of the total specific binding of triplicate wells, repeated in at least three separate experiments, and curves were fitted using one-site binding curves in GraphPad Prism 6 (GraphPad Inc, San Diego, CA).
As for B4, the pKi is 6.15 log M.

The molecule Ac-VIKLSGRELVRAQIAISGMSTWSKRSL-NH2 [AcB7-33 C11.23S] yielded a pKi of 6 log M.

B1 returned a pKi of 5.54 log M.

Molecule B5 registered a pKi of 6.52 log M.

Take B2: the pKi stood at 8.96 log M.

Turning to B6, the pKi stood at 6.61 log M.

As to DSWMEEVIKLSGRELVRAQIAISGMSTWSKRSL-NH2 [B1-33 C11.23S], the pKi came out at 5.33 log M.

The molecule B3 gave a pKi of 6.25 log M.

The next assay has as its target T3, RXFP1 (LGR7) receptor, on stably transfected HEK-293T cells. The experiment in a line: cell-based or functional assay.
The molecule Ac-VIKLSGRELVAAQIAISGMSTWSKRSL-NH2 [R17A (AcB7-33 C11.23S)] showed a cAMP pEC50 below 5 log M.

Ac-VIKLSGAELVAAQAAISGMSTWSKRSL-NH2 [R13/17A I20A (AcB7-33 C11.23S)] displayed a cAMP pEC50 below 5 log M.

Molecule Ac-VIKLSGAELVRAQIAISGMSTWSKRSL-NH2 [R13A (AcB7-33 C11.23S)] yielded a cAMP pEC50 below 5 log M.

In a further assay the target is T2, RXFP1 (LGR7) receptor, on stably …. In words: cell-based or functional assay.
In the case of B4, the “cAMP pEC50” value amounted to 5.11 log M.

As to Ac-VIKLSGRELVRAQIAISGMSTWSKRSL-NH2 [AcB7-33 C11.23S], the “cAMP pEC50” value is 5.4 log M.

As for B1, the “cAMP pEC50” value is 5.12 log M.

For the molecule VIKLSGRELVKAQIAISGMSTWSKRSL-NH2 [B7-33 C11.23S R17K], the “cAMP pEC50” value was below 5 log M.

As for Ac-VIKLSGRELVRAQAAISGMSTWSKRSL-NH2 [I20A (AcB7-33 C11.23S)], the “cAMP pEC50” value is below 5 log M.

Turning to VIKLSGRELVRAQIAISGMSTWS-NH2 [B7-29 C11.23S], the “cAMP pEC50” value is below 5 log M.

In the case of B5, the “cAMP pEC50” value is below 5 log M.

B2: the “cAMP pEC50” value came to 10.5 log M.

Regarding B6, the “cAMP pEC50” value was below 5 log M.

On to DSWMEEVIKLSGRELVRAQIAISGMSTWSKRSL-NH2 [B1-33 C11.23S], for which the “cAMP pEC50” value worked out at 5.1 log M.

In the case of B3, the “cAMP pEC50” value came to 5.81 log M.
